From PMC2174230 (The Journal of Cell Biology, 1999)

Target: T1, GST-Kap122p (S. cerevisiae, UniProt P32767 1-1081)
T1 sequence: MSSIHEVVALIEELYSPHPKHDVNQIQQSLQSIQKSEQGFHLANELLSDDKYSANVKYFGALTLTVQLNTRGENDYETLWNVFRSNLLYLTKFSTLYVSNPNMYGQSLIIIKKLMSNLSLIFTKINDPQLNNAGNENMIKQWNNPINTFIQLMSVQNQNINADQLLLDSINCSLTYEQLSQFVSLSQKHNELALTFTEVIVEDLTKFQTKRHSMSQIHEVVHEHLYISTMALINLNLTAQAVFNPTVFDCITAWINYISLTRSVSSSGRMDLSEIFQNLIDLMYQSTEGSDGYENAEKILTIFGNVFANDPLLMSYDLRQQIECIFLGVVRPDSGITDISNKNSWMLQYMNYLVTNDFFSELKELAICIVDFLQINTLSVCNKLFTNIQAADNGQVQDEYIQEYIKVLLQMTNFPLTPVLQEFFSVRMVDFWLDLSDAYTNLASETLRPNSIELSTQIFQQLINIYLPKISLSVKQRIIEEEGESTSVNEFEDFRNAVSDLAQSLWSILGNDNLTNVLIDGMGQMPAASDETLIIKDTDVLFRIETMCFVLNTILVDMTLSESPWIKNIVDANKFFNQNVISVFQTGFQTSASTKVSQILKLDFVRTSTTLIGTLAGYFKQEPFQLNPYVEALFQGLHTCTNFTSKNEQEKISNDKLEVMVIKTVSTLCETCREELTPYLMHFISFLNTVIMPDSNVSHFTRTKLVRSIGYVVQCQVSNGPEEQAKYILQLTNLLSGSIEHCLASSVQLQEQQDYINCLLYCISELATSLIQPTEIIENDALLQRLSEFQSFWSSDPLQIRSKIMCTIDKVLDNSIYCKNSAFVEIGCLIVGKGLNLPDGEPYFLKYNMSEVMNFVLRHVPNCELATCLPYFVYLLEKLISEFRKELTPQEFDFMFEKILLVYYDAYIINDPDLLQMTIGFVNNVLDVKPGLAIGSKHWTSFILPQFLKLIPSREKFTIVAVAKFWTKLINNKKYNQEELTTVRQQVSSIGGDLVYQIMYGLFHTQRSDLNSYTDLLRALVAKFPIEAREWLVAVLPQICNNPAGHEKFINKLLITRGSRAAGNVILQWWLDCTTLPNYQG
Assay: pull-down

B1: His6-Toa1p/Toa2p complex (recombinant TFIIA) (complex)
chain 1: MSNAEASRVYEIIVESVVNEVREDFENAGIDEQTLQDLKNIWQKKLTETKVTTFSWDNQFNEGNINGVQNDLNFNLATPGVNSSEFNIKEENTGNEGLILPNINSNNNIPHSGETNINTNTVEATNNSGATLNTNTSGNTNADVTSQPKIEVKPEIELTINNANITTVENIDDESEKKDDEEKEEDVEKTRKEKEQIEQVKLQAKKEKRSALLDTDEVGSELDDSDDDYLISEGEEDGPDENLMLCLYDKVTRTKARWKCSLKDGVVTINRNDYTFQKAQVEAEWV
chain 2: MAVPGYYELYRRSTIGNSLVDALDTLISDGRIEASLAMRVLETFDKVVAETLKDNTQSKLTVKGNLDTYGFCDDVWTFIVKNCQVTVEDSHRDASQNGSGDSQSVISVDKLRIVACNSKKSE
  binding result: binds
